Data from the supplement of paper PMC9732359.
± gives the uncertainty stated by the source.

Assay: protein stability index of a GFP-peptide fusion (yeast GPS) (PSI 1-4); higher = more stable; sorted into four equal gates, so the index is relative within each strain
Summary of the method: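 Sequencing reads from sorted gates were used to score each peptide. The library consisted of tiled 17-residue yeast protein peptides fused downstream of GFP on a Cherry-expressing plasmid, pooled and carried in yeast. Mid-log cultures in leucine-free medium were split into four equal gates by GFP/Cherry ratio, and each gate's plasmids were PCR-amplified and Illumina-sequenced. The protein stability index adds up, over all gates, the read frequency multiplied by the gate number.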

Sequence	protein stability index (doa10∆)	protein stability index (pdr5∆)	protein stability index (san1∆)	protein stability index (ubr1∆)
AKFFLNVSDEQLSNWQK [ITC1]	3.21 ± 0.073	3.21 ± 0.053	3.18 ± 0.063	3.17 ± 0.072
AKFRLILIESRIHRLAR [RPS13]	1.52 ± 0.099	1.97 ± 0.18	1.7 ± 0.18	2.5 ± 0.15
AKIISKAPEQFIENFLT [YML103C/NUP188]	2.69 ± 0.17	2.94 ± 0.26	2.54 ± 0.2	2.89 ± 0.2
AKKRRPAAKGKNLSFKR [RRP6]	2.9 ± 0.12	2.92 ± 0.09	2.67 ± 0.095	2.81 ± 0.085
AKLRKELVETSEVRKAV [FAS2]	2.7 ± 0.16			1.38 ± 0.25
AKNIISNVLDGNKNQFE [LRP1]	2.46 ± 0.056	2.77 ± 0.049	2.92 ± 0.045	3.23 ± 0.049
AKSNEDKQDGTAKPAFS [YJL041W/NSP1]	3.03 ± 0.23	3.44 ± 0.13	3.29 ± 0.17	2.96 ± 0.29
AKTLTYPEVVTPYNIDR [RPO21]	2.17 ± 0.074	2.35 ± 0.078	1.94 ± 0.073	2.05 ± 0.074
ALDTNGTSATTETLTSK [SIR4]	2.22 ± 0.076	2.19 ± 0.066	2.9 ± 0.065	1.93 ± 0.045
ALEDEERDEILTLTDSQ [BRR2]	3.09 ± 0.13	3.25 ± 0.14	3.23 ± 0.088	3.12 ± 0.16
ALIFIFFAYFIGWCKED [YJL039C/NUP192]	1.84 ± 0.088	1.54 ± 0.062	2.03 ± 0.093	1.88 ± 0.062
ALLRENQDSVKTYALES [RPN2]	3.35 ± 0.15	2.56 ± 0.16	2.56 ± 0.12	2.94 ± 0.1
ALLRVTKSKNKTLIGLQ [POP4]	2.71 ± 0.055	2.18 ± 0.053	2.27 ± 0.052	2.47 ± 0.049
ALLTKRLYPHWDHPVIA [CSN12]	2.19 ± 0.13	1.91 ± 0.1	1.7 ± 0.17	1.89 ± 0.068
ALMKTLIKFVDLSRNGR [NUT1]	2.37 ± 0.11	2.29 ± 0.09	2.26 ± 0.11	2.65 ± 0.15
ALPSTHKVTQKKDIKIG [SIR4]	2.36 ± 0.099	2.46 ± 0.071	2.56 ± 0.07	2.77 ± 0.067
ALQILNSGIIPGNRNAD [FAS2]	2.38 ± 0.075	1.9 ± 0.068	2.72 ± 0.1	2.8 ± 0.052
ALREMRKSDQQDVLKGS [POP1]	3.36 ± 0.17	3.56 ± 0.16	3.43 ± 0.14	3.22 ± 0.11
ALSIADDASSAELLGRV [RPC53]	3.02 ± 0.16	2.92 ± 0.26	3.21 ± 0.18	3.12 ± 0.085
ALTDFERFQVMVLRKQK [RPL14A]	1.96 ± 0.11	1.97 ± 0.11	1.62 ± 0.12	2.16 ± 0.065
ALVFAALEHLKNLSLLA [SRP68]	2.79 ± 0.12	2.75 ± 0.14	3.07 ± 0.065	2.92 ± 0.096
ALVYSYIEASGREGIWS [RPC34]	3.13 ± 0.24	2.87 ± 0.24	2.28 ± 0.17	2.52 ± 0.11
AMLNLINDNNTRPYILE [YCG1]	3.22 ± 0.11	3.35 ± 0.15	3.08 ± 0.11	3.23 ± 0.19
AMSETLSKVSLLTPDIG [PRE8]	3.08 ± 0.11	3.19 ± 0.12	3.04 ± 0.13	3.35 ± 0.23
AMVEKYAPDVVRSLENL [RRP42]	2.59 ± 0.13	2.81 ± 0.067	2.65 ± 0.052	3.14 ± 0.038
ANCQRQLTEFWTELCQR [NNF1]	3.09 ± 0.081	2.87 ± 0.08	3 ± 0.075	2.82 ± 0.099
ANKTNLIESLNTIRQNV [YML103C/NUP188]	1.57 ± 0.053	1.83 ± 0.053	1.73 ± 0.12	1.77 ± 0.063

Sequence	protein stability index (doa10∆)	protein stability index (pdr5∆)	protein stability index (san1∆)	protein stability index (ubr1∆)
ANLLPARQFGYVILTTS [RPS22A]	1.29 ± 0.053	1.35 ± 0.044	1.2 ± 0.094	1.11 ± 0.046
ANLMLVMLRLLLVVIFK [SRB4]	1.49 ± 0.045	1.51 ± 0.047	1.24 ± 0.088	1.46 ± 0.034
ANNNMNDELVELLANKC [GRR1]	2.79 ± 0.061	2.92 ± 0.044	2.78 ± 0.059	2.99 ± 0.046
ANQSATSTPPPPPAPHN [SNF5]	2.98 ± 0.041	3.03 ± 0.034	2.82 ± 0.034	3.1 ± 0.032
ANVPSTATTGKRKPAKS [RPN4]	2.64 ± 0.073	2.88 ± 0.082	2.64 ± 0.05	2.8 ± 0.05
APAVELHGNAKKAAEEA [FAS2]	3.42 ± 0.12	3.11 ± 0.14	3.1 ± 0.12	3.3 ± 0.15
APDGSASISLPNHIPSV [SWP82]	3.36 ± 0.11	2.54 ± 0.068	2.77 ± 0.097	3.3 ± 0.044
APKIHILDPSTEYCVGD [YMR129W/POM152]	2.91 ± 0.13	3.35 ± 0.092	2.97 ± 0.087	2.79 ± 0.13
APKWYPSEDVAALKKTR [RPL6A]	2.5 ± 0.07	2.97 ± 0.063	2.75 ± 0.049	2.53 ± 0.051
APPQTRKFQPPPGFKRK [SMB1]	3.18 ± 0.088	3.19 ± 0.1	3.17 ± 0.084	3.28 ± 0.063
APSDFSENQRQIFCVFS [GRR1]	2.93 ± 0.071	2.58 ± 0.078	2.76 ± 0.064	2.65 ± 0.057
APSGIRMHLAPASKQGY [SSN2]	2.24 ± 0.17	2.48 ± 0.11	2.22 ± 0.13	2.36 ± 0.097
APTLSQTYINQELGFCE [SSN2]	2.85 ± 0.18	2.81 ± 0.16	1.95 ± 0.22	2.92 ± 0.18
APYRKQIISNAHNKPSL [YAR002W/NUP60]	2.17 ± 0.073	2.47 ± 0.081	2 ± 0.1	2.36 ± 0.085
AQAQAQAQAQAQAAQAA [GAL11]	2.91 ± 0.055	3.27 ± 0.045	3.258 ± 0.023	3.15 ± 0.057
AQFQYTLDRNTAAETFK [RPL8A]	2.15 ± 0.082	2.08 ± 0.082	2.64 ± 0.27	2.06 ± 0.049
AQGKEFGVTKARWPAKS [RPL17A]	3.02 ± 0.13	3.49 ± 0.12	3.26 ± 0.066	3.35 ± 0.097
AQGVAVQLKRQPAQPRE [RPL21A]	1.66 ± 0.088	1.22 ± 0.081	1.61 ± 0.084	1.88 ± 0.07
AQQAQQAQQAQQAQARL [SNF2]	3.08 ± 0.051	3.24 ± 0.048	3.13 ± 0.035	3.2 ± 0.045
AQQDSTNVRLYSLLLAS [ECM29]	2.27 ± 0.068	2.04 ± 0.052	2.39 ± 0.047	2.43 ± 0.04
AQQKLKQNPGLMQNMMN [SRP54]	2.74 ± 0.056	2.42 ± 0.059	2.79 ± 0.044	2.54 ± 0.033
AQWERSKLSQEFLYPHL [SNF12]	3.1 ± 0.088	3 ± 0.084	2.83 ± 0.071	3.08 ± 0.062
ARDAPTKISTLAVKVHG [QCR2]	1.4 ± 0.11	2.09 ± 0.14	1.38 ± 0.14	1.09 ± 0.045
ARIIAAIPNPEDVVAIS [RPS0A]	1.8 ± 0.071	2.14 ± 0.083	2.34 ± 0.091	2.31 ± 0.083
ARKETYSSYIYKVLKQT [HTB1]	2.89 ± 0.058	2.43 ± 0.048	1.97 ± 0.072	2.47 ± 0.037
ARKSAPSTGGVKKPHRY [HHT1]	1.66 ± 0.065	1.87 ± 0.052	2.03 ± 0.075	2.03 ± 0.063
